Data from paper doi:10.1101/2025.07.21.665964.

Biological target: Avi-GST-CMG2^ABD
Assay: BLI

Work on “purified actin (polymerized F-actin) (from UniProt P60709 1-375) (natural protein)” yielded a Kd of 10 nM.
